Test results: the supplement of paper PMC12667976
± gives the standard error.

B1: library; numbered along this chain (parent)
chain: MATDAALRRLLRLHRTEIAVAVDSAFPLLHALADHDVVPEDKFQETLHLKEKEGCPQAFHALLSWLLTQDSTAILDFWRVLFKDYNLERYGRLQPILDSFPKDVDLSQPRKGRKPPAVPKALVPPPRLPTKRKASEEARAAAPAALTPRGTASPGSQLKAKPPKKPESSAEQQRLPLGNGIQTMSASVQRAVAMSSGDVPGARGAVEGILIQQVFESGGSKKCIQVGGEFYTPSKFEDSGSGKNKARSSSGPKPLVRAKGAQGAAPGGGEARLGQQGSVPAPLALPSDPQLHQKNEDECAVCRDGGELICCDGCPRAFHLACLSPPLREIPSGTWRCSSCLQATVQEVQPRAEEPRPQEPPVETPLPPGLRSAGEEVRGPPGEPLAGMDTTLVYKHLPAPPSAAPLPGLDSSALHPLLCVGPEGQQNLAPGARCGVCGDGTDVLRCTHCAAAFHWRCHFPAGTSRPGTGLRCRSCSGDVTPAPVEGVLAPSPARLAPGPAKDDTASHEPALHRDDLESLLSEHTFDGILQWAIQSMARPAAPFPS

Variants of: B1
Experiment: AIRE transcriptional activation functional score (insulin promoter-GFP; nonsense median 0, synonymous median 1) (normalised score); higher = higher AIRE activity (more reporter activation)
Conditions: with insulin promoter-GFP reporter in HEK293
Method in brief: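 Flp-In T-REx HEK293 landing-pad cells carrying an insulin core promoter-GFP reporter received codon-optimized AIRE NNN-codon libraries (three regions) through Bxb1 recombinase. Sorting of mCherry+, BFP− integrants took place at day 7, followed by 7 days of expansion and tile-sequencing of top 10% GFP and unselected integrant populations. A functional score was derived from select versus non-select variant enrichment with wild type subtracted. Values from variants reaching 10 counts per million in non-select were set to nonsense median 0 and synonymous median 1 and averaged over biological replicates.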

Variant	AIRE transcriptional activation functional score
P430R	0.778 ± 0.23
P430C	0.92 ± 0.36
P430E	1.01 ± 0.11
P430A	0.806 ± 0.25
P430L	1.18 ± 0.24
P430Y	1.03 ± 0.16
P430F	1.69 ± 0.089
P430I	1.28 ± 0.3
P430W	1.3 ± 0.025
P430H	1.32 ± 0.061
P430V	0.632 ± 0.38
P430K	0.999 ± 0.086
P430G	1.21 ± 0.26
P430Q	1.01 ± 0.36
P430N	1.14 ± 0.18
P430S	0.992 ± 0.36
P430T	0.77 ± 0.24
P430D	0.951 ± 0.054
R433A	0.402 ± 0.44
R433K	1.03 ± 0.12
R433I	0.308 ± 0.067
R433F	0.678 ± 0.41
R433C	0.922 ± 0.13
R433E	1.39 ± 0.07

Variant	AIRE transcriptional activation functional score
R433T	0.808 ± 0.18
R433G	0.748 ± 0.22
R433M	0.755 ± 0.12
R433N	1.15 ± 0.071
R433L	0.786 ± 0.24
R433H	0.569 ± 0.21
R433D	0.895 ± 0.059
R433P	0.565 ± 0.22
R433S	0.734 ± 0.31
R433Q	1.13 ± 0.34
A432L	0.822 ± 0.4
A432R	0.993 ± 0.31
A432H	0.437 ± 0.44
A432W	1.88 ± 0.094
A432K	0.599 ± 0.19
A432G	1.22 ± 0.11
A432V	0.872 ± 0.29
A432S	0.578 ± 0.26
A432P	0.463 ± 0.084
A432E	1.16 ± 0.18
A432F	1.06 ± 0.25
A432D	0.806 ± 0.097
A432Q	0.748 ± 0.18
A432T	0.81 ± 0.39

Variant	AIRE transcriptional activation functional score
A432C	1.2 ± 0.14
A432N	-0.334 ± 0.22
A432I	0.534 ± 0.21
A432M	0.0975 ± 0.032
A432Y	1.28 ± 0.27
Q425E	0.587 ± 0.23
Q425V	0.734 ± 0.21
Q425D	0.431 ± 0.85
Q425T	0.973 ± 0.3
Q425G	1.04 ± 0.18
Q425S	1.06 ± 0.28
Q425N	0.869 ± 0.12
Q425W	1.28 ± 0.024
Q425I	1.07 ± 0.33
Q425L	1.18 ± 0.11
Q425M	0.974 ± 0.078
Q425A	0.368 ± 0.13
Q425C	0.714 ± 0.05
Q425P	1.21 ± 0.11
Q425K	0.902 ± 0.12
Q425R	0.94 ± 0.15
Q425H	1.3 ± 0.16
Q425F	1.13 ± 0.33
Q425Y	1.28 ± 0.075

Variant	AIRE transcriptional activation functional score
G424Y	0.738 ± 0.57
G424W	1.26 ± 0.04
L428R	0.941 ± 0.13
L428A	1.08 ± 0.081
L428W	1.31 ± 0.044
L428G	0.959 ± 0.25
L428H	1.48 ± 0.099
L428I	1.22 ± 0.31
L428Y	1.05 ± 0.24
L428F	1.09 ± 0.22
L428D	0.545 ± 0.29
L428K	0.817 ± 0.14
L428T	0.817 ± 0.26
L428C	0.816 ± 0.14
L428M	1.32 ± 0.089
L428S	1.15 ± 0.15
L428N	1.08 ± 0.23
L428P	0.955 ± 0.32
L428E	0.885 ± 0.37
L428Q	1.01 ± 0.025
G431Y	0.576 ± 0.32
G431V	1.13 ± 0.14
G431P	0.983 ± 0.25
G431K	0.71 ± 0.18

Variant	AIRE transcriptional activation functional score
G431A	1.23 ± 0.28
G431S	0.927 ± 0.24
G431R	0.579 ± 0.19
G431T	1.21 ± 0.16
G431W	1.29 ± 0.027
G431L	0.794 ± 0.35
G431M	0.776 ± 0.13
G431H	1.39 ± 0.086
G431Q	0.86 ± 0.29
G431N	0.881 ± 0.19
G431F	1.14 ± 0.1
G431I	1.32 ± 0.11
G431C	0.854 ± 0.15
G431E	0.793 ± 0.22
G431D	0.852 ± 0.23
N427Y	1.47 ± 0.04
N427L	1.51 ± 0.071
N427F	1.42 ± 0.17
N427G	1 ± 0.29
N427S	1.1 ± 0.39
N427I	1 ± 0.25
N427H	0.904 ± 0.29
N427E	1.12 ± 0.12
N427K	0.842 ± 0.079

Variant	AIRE transcriptional activation functional score
N427W	1.3 ± 0.051
N427P	1.18 ± 0.55
N427T	1.07 ± 0.11
N427A	1.33 ± 0.17
N427M	1.81 ± 0.08
N427Q	0.539 ± 0.033
N427D	1.07 ± 0.42
N427R	0.362 ± 0.17
N427C	1.1 ± 0.23
N427V	1.06 ± 0.18
A429D	1.07 ± 0.29
A429S	1.09 ± 0.17
A429W	1.2 ± 0.081
A429H	1.47 ± 0.041
A429N	1.09 ± 0.094
A429Q	1.32 ± 0.12
A429T	1.12 ± 0.17
A429Y	0.892 ± 0.44
A429R	0.843 ± 0.2
A429I	1.14 ± 0.12
A429E	0.833 ± 0.28
A429P	0.614 ± 0.34
A429K	0.0334 ± 0.24
A429C	0.771 ± 0.1

Variant	AIRE transcriptional activation functional score
A429F	1.34 ± 0.1
A429V	1.01 ± 0.15
A429G	0.724 ± 0.25
A429L	1.06 ± 0.12
Q426K	1.16 ± 0.051
Q426G	0.866 ± 0.13
Q426R	0.722 ± 0.33
Q426N	1.23 ± 0.043
Q426C	1.4 ± 0.044
Q426A	-0.467 ± 0.31
Q426D	0.796 ± 0.2
Q426F	1.34 ± 0.04
Q426E	1.07 ± 0.094
Q426Y	1.54 ± 0.11
Q426S	0.831 ± 0.54
Q426V	1.29 ± 0.083
Q426T	1.17 ± 0.094
Q426H	1.18 ± 0.14
Q426P	1.09 ± 0.091
Q426M	1.34 ± 0.16
Q426W	1.64 ± 0.042
Q426I	0.87 ± 0.067
Q426L	1.06 ± 0.23
